Assay in all cases: ELISA
(In an ELISA, binding on a coated surface is turned into a signal by an enzyme label.)

Experiment [1] concerns the target glycosylated soluble gp120 (rgp 120 HIV-1 MN, baculovirus) (HIV-1 MN) (UniProt P05877).
In a further experiment the target is T1, ribonuclease B (UniProt P61823 27-150).
T1 construct: also called RNase B
T1 sequence (looked up): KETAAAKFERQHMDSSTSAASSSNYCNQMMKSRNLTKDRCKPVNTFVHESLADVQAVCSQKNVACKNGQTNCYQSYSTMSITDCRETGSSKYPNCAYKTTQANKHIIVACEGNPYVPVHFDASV

The target in experiment [2] is glycosylated soluble gp120 (rgp 120 HIV-1 MN, baculovirus) (HIV-1 MN), P05877. The conditions noted are these: remark: other sources report otherwise.

Like-named read-outs stand apart in the source and are kept apart here.

Here are results for three molecules from paper PMC4926178 (Viruses, 2016).

Usually EC50 stands for the concentration that produces a half-maximal response. A higher EC50 goes with weaker potency.

Regarding “Nested Cyanovirin-N (Nested CV-N) (from UniProt P81180 1-50; P81180 1-101) (designed binder)”, the EC50 is 1.29 nM in experiment [1] and 13 nM in the experiment with ribonuclease B.

B1: wild-type Cyanovirin-N (WT CV-N), P81180 1-101 (natural protein)
chain: LGKFSQTCYNSAIQGSVLTSTCERTNGGYNTSSIDLNSVIENVDGSLKWQPSNFIETCRNTQLAGSSELAAECKTRAQQFVSTKINLDDHIANIDGTLKYE
modifications: here or on the partner: glycosylated (oligomannose glycans; about 25 sites per monomer)
In turn, B1 came in with an EC50 in experiment [2] of 1.66 nM.

B2: wild-type Cyanovirin-N (WT CV-N) (natural protein)
chain: B1 chain
Consider B2, for which the response in the experiment with ribonuclease B (both partners purified) was half-maximal at 17 nM (EC50).
